US12246067B2, “Neoantigens and uses thereof” (priority 2018, dated 2025)

Tests used:
[1] = target: T1, HLA-A02:01 (Homo sapiens, UniProt P04439, D140Y/D185E/D98H/E176V/E277Q/G131W/G231S/I119V/I121R/I166T/I218V/L300P/L318F/N151K/N90K/P208A/P217A/Q86G/Q94H/R138H/R169H/T345S); test: Stability of neoepitopes with the HLA allele; assay type: binding; conditions: HLA allele A02.01; mutant KRAS peptides (Example 9)
Experimental: (§1) Multiple peptides containing the neoepitopes in the table below were expressed or loaded onto antigen presenting cells (APCs). Mass spectrometry was then performed and the affinity of the neoepitopes for the indicated HLA alleles and stability of the neoepitopes with the HLA alleles was determined.

[2] = target: T1, HLA-A02:01; test: Affinity of neoepitopes for the indicated HLA allele; assay type: binding; conditions: HLA allele A02.01; mutant KRAS peptides (Example 9)
Experimental: as §1

[3] = test system: ovarian carcinoma patients; conditions: poly-ICLC in combination with a NYESO-1 peptide vaccine (in addition to Montanide); phase 1 study; cited from earlier work
[4] = test system: humans; conditions: cited from earlier work

Substance | Measured stability [1] [h] | Measured Affinity [2] [nM] | Patients showing induction of CD4+ and CD8+ T cell, as well as antibody responses to the peptide [3] [%] | CD4+ and CD8+ responses in humans [4]
LVVVGACGV | 0.6 | 667.1 | – | –
LVVVGADGV | 0.0 | 977.4 | – | –
LVVVGAVGV | 0.6 | 682.5 | – | –
poly-ICLC | – | – | > 90 | can induce durable CD4^+ and CD8^+ responses
